Drawing on publication PMC9769368 (2022), this text covers EC50 for two molecules.

Holding throughout (assay): ELISA
A general note: ELISA stands for enzyme-linked immunosorbent assay.

The target in experiment [1] is AAV5 virus-like particles (adeno-associated virus 5, UniProt Q9YIJ1 2-724).
Experiment [2] has as its target T1, AAVGo.1 virus-like particles (goat adeno-associated virus capsid, without DNA genome) (goat adeno-associated virus AAVGo.1).
T1 chain 1: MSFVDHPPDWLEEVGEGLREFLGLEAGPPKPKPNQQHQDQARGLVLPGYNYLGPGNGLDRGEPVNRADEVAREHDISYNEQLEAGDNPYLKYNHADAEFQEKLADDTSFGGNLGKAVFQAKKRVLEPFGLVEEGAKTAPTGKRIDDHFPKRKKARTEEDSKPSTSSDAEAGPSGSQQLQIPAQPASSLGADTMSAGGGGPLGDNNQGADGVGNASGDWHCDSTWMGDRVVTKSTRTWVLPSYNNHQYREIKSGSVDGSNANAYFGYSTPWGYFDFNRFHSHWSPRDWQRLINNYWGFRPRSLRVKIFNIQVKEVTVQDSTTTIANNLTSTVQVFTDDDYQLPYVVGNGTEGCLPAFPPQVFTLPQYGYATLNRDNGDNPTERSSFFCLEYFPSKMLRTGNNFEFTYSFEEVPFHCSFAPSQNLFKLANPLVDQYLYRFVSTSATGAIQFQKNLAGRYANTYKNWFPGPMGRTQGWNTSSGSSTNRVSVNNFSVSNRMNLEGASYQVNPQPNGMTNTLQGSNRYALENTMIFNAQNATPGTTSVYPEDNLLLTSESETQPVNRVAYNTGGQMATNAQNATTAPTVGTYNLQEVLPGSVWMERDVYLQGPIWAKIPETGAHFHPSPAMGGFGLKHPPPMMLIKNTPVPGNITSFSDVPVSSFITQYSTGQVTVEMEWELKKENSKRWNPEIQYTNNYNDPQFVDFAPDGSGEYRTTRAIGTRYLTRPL
T1 chain 2: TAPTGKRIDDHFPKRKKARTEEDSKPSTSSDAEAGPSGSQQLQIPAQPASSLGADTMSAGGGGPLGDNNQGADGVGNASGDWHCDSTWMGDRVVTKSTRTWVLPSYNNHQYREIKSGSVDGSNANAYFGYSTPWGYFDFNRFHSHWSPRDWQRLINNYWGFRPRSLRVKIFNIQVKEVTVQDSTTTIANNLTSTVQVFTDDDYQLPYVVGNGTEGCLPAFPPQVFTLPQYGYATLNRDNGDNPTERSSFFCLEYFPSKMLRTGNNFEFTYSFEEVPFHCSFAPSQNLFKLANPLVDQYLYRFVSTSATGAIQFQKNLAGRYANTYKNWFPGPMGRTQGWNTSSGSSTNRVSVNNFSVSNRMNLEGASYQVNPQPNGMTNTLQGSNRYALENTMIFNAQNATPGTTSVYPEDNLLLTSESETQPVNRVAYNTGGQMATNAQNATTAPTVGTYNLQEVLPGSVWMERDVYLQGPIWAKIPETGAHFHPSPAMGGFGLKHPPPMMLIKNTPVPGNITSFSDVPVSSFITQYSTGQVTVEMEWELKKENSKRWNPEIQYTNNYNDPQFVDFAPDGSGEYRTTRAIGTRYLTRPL
T1 chain 3: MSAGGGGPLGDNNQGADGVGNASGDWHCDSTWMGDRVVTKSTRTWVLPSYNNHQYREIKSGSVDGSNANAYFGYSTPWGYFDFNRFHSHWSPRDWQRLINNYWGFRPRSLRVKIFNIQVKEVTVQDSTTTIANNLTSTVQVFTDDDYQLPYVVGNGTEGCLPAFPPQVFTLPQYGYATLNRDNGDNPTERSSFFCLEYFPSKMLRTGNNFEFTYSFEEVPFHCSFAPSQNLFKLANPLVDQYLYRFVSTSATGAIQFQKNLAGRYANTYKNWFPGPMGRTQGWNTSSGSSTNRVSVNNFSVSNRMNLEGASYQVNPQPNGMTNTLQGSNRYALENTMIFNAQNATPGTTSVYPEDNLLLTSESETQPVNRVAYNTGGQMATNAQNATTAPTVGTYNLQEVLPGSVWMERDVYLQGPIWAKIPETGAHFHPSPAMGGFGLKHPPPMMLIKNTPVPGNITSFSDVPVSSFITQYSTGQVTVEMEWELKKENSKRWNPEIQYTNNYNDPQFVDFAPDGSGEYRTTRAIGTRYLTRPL

Experiment [3] addresses AAV2 virus-like particles (adeno-associated virus 2).

B1: His6PKD1, fragment of human AAV receptor (AAVR) with PKD domain 1 (domain or fragment)
chain: SAGESVQITLPKNEVQLNAYVLQEPPKGETYTYDWQLITHPRDYSGEMEGKHSQILKLSKLTPGLYEFKVIVEGQNAHGEGYVNVTVKPE
The EC50 is the concentration that produces a half-maximal response. Higher therefore signals a need for much substance. As to B1, the EC50 in experiment [1] stood at 400 nM; in experiment [2] it was 140 nM.

B2: His6PKD12, fragment of human AAV receptor (AAVR) with PKD domains 1 and 2 (domain or fragment)
chain: MASHHHHHHVSAGESVQITLPKNEVQLNAYVLQEPPKGETYTYDWQLITHPRDYSGEMEGKHSQILKLSKLTPGLYEFKVIVEGQNAHGEGYVNVTVKPEPRKNRPPIAIVSPQFQEISLPTTSTVIDGSQSTDDDKIVQYHWEELKGPLREEKISEDTAILKLSKLVPGNYTFSLTVVDSDGATNSTTANLTVNKAVD
As for B2, the EC50 in experiment [3] was 340 nM; in experiment [1], 280 nM; in experiment [2], 120 nM.
